{"source": "paper PMC7268246", "about": "“Purification and immobilization of engineered glucose dehydrogenase: a new approach to producing gluconic acid from breadwaste” (Biotechnology for Biofuels, 2020)", "proteins": {"B1": {"name": "recombinant glucose dehydrogenase (GDH) from Sulfolobus solfataricus (enzyme, UniProt O93715 1-366, looked up)", "chain": "MKAIIVKPPNAGVQVKDVDEKKLDSYGKIKIRTIYNGICGTDREIVNGKLTLSTLPKGKDFLVLGHEAIGVVEESYHGFSQGDLVMPVNRRGCGICRNCLVGRPDFCETGEFGEAGIHKMDGFMREWWYDDPKYLVKIPKSIEDIGILAQPLADIEKSIEEILEVQKRVPVWTCDDGTLNCRKVLVVGTGPIGVLFTLLFRTYGLEVWMANRREPTEVEQTVIEETKTNYYNSSNGYDKLKDSVGKFDVIIDATGADVNILGNVIPLLGRNGVLGLFGFSTSGSVPLDYKTLQEIVHTNKTIIGLVNGQKPHFQQAVVHLASWKTLYPKAAKMLITKTVSINDEKELLKVLREKEHGEIKIRILWE", "notes": "glucose dehydrogenase (GDH) of Sulfolobus solfataricus; the discussion gives the monomer as 366 amino acid residues (41 kDa); the tagged construct has 43 kDa; also called engineered GDH; recombinant GDH; source: E. coli BL21-DE3 (pET30a), lysate heat treated at 70 °C, purified (Ni-NTA, dialysis, size exclusion chromatography)"}}, "molecular_target": "the molecule itself", "test": "SEC; Superdex Increase 10x300GL column on an ÄKTA Pure system; Ni-NTA purified GDH dialysed into 100 mM HEPES pH 7.4, 200 mM MgCl2, 10% glycerol; run in one buffer only", "data": [{"protein": "B1", "values": [{"measurement": "stoichiometry N", "value": 4}]}]}
